Assay results: the DeepSol protein solubility set

Experiment: soluble on expression in E. coli; label from the status in PepcDB or PDB records
In the case of “MAIETEDIKYEESFIKNTRGFKLFTCRWLPTNREPRALVFLCHGYGMECSITMNSTARRLVKAGFAVYGMDYEGHGKSDGLSAYISNFDRLVDDVSTHYTAICEREENKWKMRFMLGESMGGAVVLLLGRKNPDFWDGAILVAPMCKIAEEMKPSPFVISILTKLISIIPKWKIIPSQDIIEISYKEPEIRKQVRENPLCSKGRPRLKTAYELLRISNDLEKRLQEVSLPFLVLHGDDDKVTDKAVSQELYKVALSADKTLKLYPGMWHGLLTGETPENIEIVFADVISWLEKRSDYGNDRFESELKQRNDRLNFKK”, the “soluble on expression in E. coli” value is reported as “soluble”.
In the case of “PNFSHWGPPRIVEIFREPNVSLGISIVGGQTVIKRLKNGEELKGIFIKQVLEDSPAGKTNALKTGDKILEVSGVDLQNASHSEAVEAIKNAGNPVVFIVQSLSSTPRVIP”, the “soluble on expression in E. coli” value is reported as “soluble”.
With “MEMKNVKGTKDYLPEEQVLRNKIKRACEDTFERYGCKPLETPTLNMYELMSYKYGGGDEILKEIYTLQDQGKRNLALRYDLTIPFAKVVAMNPNIRLPFKRYEIGKVFRDGPIKQGRFREFIQCDVDIVGVESVMAEAELMSMAFELFRTLNLEVTIQYNNRKLLNGILESINIPTERTSDVILSLDKIEKIGIDGVRKDVLERGISEEMADTICNTVLSCLKLTIADFKEAFNNPLVADGVNELQQLQQYLIALGINENAIFNPFLARGLTMYTGTVYEIFLKDGSITSSIGSGGRYDNIIGAFRGDNMNYPTVGISFGLDVIYTALSQKETISSTADVFIIPLGTELQCLQIAQQLRSTTSLKVELELAGRKLKRALNYANKENIPYVLIIGEDELSTETVVLRNMKEGSEVKVPLSSLKDNTFNNYCNIPIKL” the “soluble on expression in E. coli” value was “soluble”.
With “DEEDANFMQRAFEMNDKVASDVMVDRTSMSVVDVDETIADALLLYLEEQYSRFPVTADNDKDKIIGYAYNYDIVRQARIDDKAKISTIMRDIVSVPENMKVPDVMEEMSAHRVPMAIVIDEYGGTSGIITDKDVYEELFGNLRDEQDDED” the “soluble on expression in E. coli” value was “soluble”.
With “MIASLDELYHSELFFLPVMDENARLVGLEIIATFAAEDGAVRMPTELVAPRLSVEEQYCLFVEKLALLETCQHFFIQHKLIAWLNLPPAISDLLLLDSELFSRAARFPFLELAINENYPGLNQGKNNETLANLAMHFPLMLANFGAGEASTKAIFDGLFKRVMLDKNFIQQRAEMISFEPFMHAIVAQISSSCESLMIAGIDTEAMFARAAPLGFSAFQGGLWPPVPVSQLIKLVQR” the “soluble on expression in E. coli” value was “not soluble”.
With “STEDLLTYTLDEAERLTGSTLGFFDLISDDQSIMRSACSSNAKKDNCGHARHPIVINFKAPADVLQKKRAIIHNDHATLRHCNSKSVSHKEAIRELIVPVIRNGKVMAILEVGNKPANYDQNDIQLLNELSGVAWDIIARKHAEDSAQKTMK” the “soluble on expression in E. coli” value was “not soluble”.
In the case of “MSLATSYVGTVAGEKITTKEFKYFLGYVKIQMENDAQLQDQASKEAFWDSKIEGVDAKELAKQKALDSCKEFKIQLLKARERGLFLNDKDMQEIENSITTLLNQMAQFDQAAKNTGVEVMSAEEMLKDTYGVTIQEYKEILKDLRLVLKLVEDEQKNITITEEELRNRYNENKDVFDKITVRHIIFYTINPKTDVSLSEDAKKKAYENAKKALERANKGEDMEALALELSEDSGVEGNKGILEINSLKVNEPKLSNLVKWAYEHKVGDTDIVETGYGYHVVKIEKRTEYKDVVQNVKNVILSERYNQILGQWKQEPQYDLKKNEFALKRIKEGHHHHHH”, the “soluble on expression in E. coli” value is reported as “soluble”.
For “MRTIKLIIAYDGTAYAGFQRQPNGITIQQRLEEALRAVTGEPDLRIGAAAGRTDAGVHARGQVVHLRTYATIPIDRWPAALNGHLPDDIAVIGAEEAPPDFHARYWAREKRYRYTFCLSPYRLPMARLYSYHWHRPVDVDAMRRAAALLVGRHDFAAFRATGGSARTTVRTITRLTLTEEPPFLHLDVTADGFLYNMVRIIAGTLLEVGAGRRSLDRVAQALRHGRREDAGRTLPPHGLCLEEVVYGDGPSIPPWAAEAAPDVDLEP”, the “soluble on expression in E. coli” value was “soluble”.
In the case of “MKKVSIIIPFKGQTEAELMLPLSSIYNQIGVDLSQLDIHLVNDGGKTIDLSKFDVLADRLEIHYHEIPNGGPGVARQYGIDNSISEYIMFIDADDVLYYVGALWPFYNASNQGHQMIRASYWEQIAGNPYTYTVHGNGDRKAAYGKWYKRSYIEMLGLRFMPDLPIYEDTYFVGLACELATDTCFLEEKVYMWLANPNSITRTVENKFNYQAHIYARENRYWFEMIRKWKPECLVTDFENYLTNMYLKSQKYPPVDEKAWWEEQHKLITSVSDIFSGWTQELQKQVELEHHHHHH”, the “soluble on expression in E. coli” value is reported as “not soluble”.
For “MGSDKIHHHHHHMSNISEIVVELFKEASIYLPDDVKSKLKHAEEVECGACKDTLQAIELNNKIAETKQIPLCQDTGVPVIFLKIGTGISSERIIEIIKEIESGVKRATAEVPLRPNVVNPITRENLGTNTGMGAPFINFEFSENLNNEIEISVFPKGAGSENMSALKMLTPSEGLMGIKKFILETVANAGGKPCPPIVLGIGIGGTADISLKLAKKALLRDIGNRNPEKTIENLEKELLDSINQLGIGTMGLGGKITALDVFIEVNGCHTASLPVGICIQCWADRKAKRKIKL”, the “soluble on expression in E. coli” value was “not soluble”.
With “MATEIDINRIQKDIFIEHKGEPYRVLDYEHVKPGKGQAFVRVKAKNMLTGNVTELTFKASDRIPLADFEQVYATYSYNDGENYYFMNTQTYDMIAVPKEKIEEEAKFLKEGMEVIVFLYKGQPIGIELPKHVELQVVETEPAFKGDTQAGGTKPAKLETGAVIQVPFFVKEGDIVKVDTRTGSYVERVKEAK” the “soluble on expression in E. coli” value was “soluble”.
With “MGHHHHHHSHMLVLRSGLTKALASRTLAPQVCSSFATGPRQYDGTFYEFRTYYLKPSNMNAFMENLKKNIHLRTSYSELVGFWSVEFGGRTNKVFHIWKYDNFAHRAEVRKALANCKEWQEQSIIPNLARIDKQETEITYLIPWSKLEKPPKEGVYELAVFQMKPGGPALWGDAFERAINAHVNLGYTKVVGVFHTEYGELNRVHVLWWNESADSRAAGRHKSHEDPRVVAAVRESVNYLVSQQNMLLIPASFSPLK” the “soluble on expression in E. coli” value was “not soluble”.
With “GPGSMLRRSYATLRRKASVVLKGQLNPLEALTQIQLGMTPSLPIQRGFLLEHCERQLESLGITEGKLLAMDGRLCTQLTKRIVYELYLSVPFRVFTFDMEFTGPPVFTADGPTEDITELGLYSPLLDETFSCLVRPVCGRKQGPGVEELTHITDMMLEREGIPFVEAWQQFLKFVQTPQPDEISGSEERILLLSHGGKLADVSLIKWTLEKFHMELPPSFVFGDTIHLIRDAHRRRPVTIDKHPPSWKLADLVQWLHIPPTLPAHRAGNDARMTWDALYHTLLRYGDDGMTPREQLVPRFFDAEAKQLLREHTARQAQERAALSLDGTFLLADAKQSTSAGHADSSSIGYSVYRSASDGSGKPGKSGAATDLLDLDFDDIFSEQNKVSASAPIEEFKLDDDDDLHSISAGATSFTASRTLSSTTTSRTADLSVDPAEDDNAVSDVNAASTSTVSPARAAKTATSGGRKGKASGSSRSKEAVEKRNKRRVSAGDDDGGETSDPPAAATRAVFLV” the “soluble on expression in E. coli” value was “soluble”.
With “MSLNTVLRLPLKYPSTNKELKSHEYFESQIAYTGCLIATTTHMVDHISWRLNNDLKTITLTPICISNPFQLECRTISLLLPSQVYPHCIDAVYHGEEGGYLVVDVIDENYLWITLRIEMNDFLHNTKNFRPLTLDQFESWGHISVPYSFELRSNPYCLRVLDERNVVVSLKDGGLLHFQRSSVLADFNVFNCEESAHFHLGGILDGIFKSGRADLTVDGVSSNAAIDATIVPDPSKSLIATLTVSKTIKFWDLKEHSLLRERTIHPQDTNTWLSFGPARYLQCYGNVLGVHSLLQTKHSTSIDFWDVSPLKEDQKSYKILHTVELLSPTINGAPSDSPFSNDIWFIQDFTLKFEKGNFTVLWKSNNSSILTIYDLKNLAENDKPPKLSQWTLSGSEGHHHHHH” the “soluble on expression in E. coli” value was “not soluble”.
With “MEPHKVVPLSKPHPPVVGKVTHHSIELYWDLEQKEKRQGPQEQWLRFSIEEEDPKMHSYGVIYTGYATRHVVEGLEPRTLYKFRLKVTSPSGEYEYSPVVSVATTRE” the “soluble on expression in E. coli” value was “soluble”.
For “PTKLETFPLDVLVNTAAEDLPRGVDPSRKENHLSDEDFKAVFGMTRSAFANLPLWKQQNLKKEKGLF”, the “soluble on expression in E. coli” value was “soluble”.
In the case of “MKTAIVTDSTAYLPKEVRERLGIRLIPLSVIFGNETYREEIDMTADEFFAKIKQHPTLPTTSQPSVGEFVDLFTAIREEGYEAVVSIHLSSGISGTYQGAVTAGTMVDGLRVYAYDSEISCMAQGFYAIEAAEMAQAGRSPEDIIARLDEMKQTLRAYFMVDDLAHLQRGGRLTGAQAFIGGLLQIKPLLRFENKVIVPFEKIRTRKKAIHRIEELFAEDAEKGVPLKAAIIHANQPDEAHRWRDELSARYPHVEFSISYFGPVIATHVGEGALGLTWYQP”, the “soluble on expression in E. coli” value is reported as “soluble”.
With “MTEVAKGVATHQRLVALLTQENARYRVVNHEAVGKCEAVSEIRGTALGQGAKALVCKVKGNGVNQHVLAILAADQQADLSQLASHLGGLRASLASPAEVDMLTGCVFGAIPPFSFHPNLKLVADPLLFERFDEIAFNAGLLEKSVIMNTQDYLRIARPELAVFRRFQSSPTA” the “soluble on expression in E. coli” value was “not soluble”.
For “MSLAIVAKRTIMSLFSDVDDVYSHQVRIVLAEKGVNVEILAVKQDEPGADLLSINPYGTVPTLIDRELVLYEARIIMEYLDERFPHPPLLPVYPVARAEARKMMHRIEQDWYYLMNAILREESVEQARANLLESLTSLDPVFADKPYFLSDEFSLLDCALAPLLWRLPKLGLEIAPNFKGIISYMQRVFKRDSFQTSLTDAERQIRAAEGHHHHHH”, the “soluble on expression in E. coli” value was “soluble”.
In the case of “MGSDKIHHHHHHMNRGKALQLVKPHLTEHRYQHTIGVMETAIDLAKLYGADQQKAELAAIFHDYAKFRDKNEMRTLIREKLSQQDILFYGDELLHAPCGAYYVREEVGIEDEDVLQAIRFHTTGRPNMSLLEKIIFLADYIEPNRQFPGVEKVRTQAKTDLNGAIISSLVNTITFLLKKNQPIYPDTLATYNQLLLEQK”, the “soluble on expression in E. coli” value is reported as “not soluble”.
With “MESITQIYRIGYGPSSSHTIGPRRAAEMFLDRNPRATSFRVTLYGSLAATGKGHLTDAAILAVLEAKAPTEIVWKPEIFQNFHPNGMLFESFDKEGKQLDDWLIYSIGGGVLANEHFNEQ” the “soluble on expression in E. coli” value was “not soluble”.
With “MLAVSGLARSTFFDHQRRLDKPDKYADLKEQITTIFHDSNATFGYRRIWRALRNNNTIVNKKVVQRLMREQGLVSKIRRKKYNSYRGTVSHIADNVLGRRFIQDAPNKVWVSDVTEFRVAGTKVYLSPVMDLFDRTILAHTLSTSPNTQLTSRSLADAIAMFSPGKGLIVHTDQGFQYQHASWRTLIKSVGGVQSMSRKGNCYDNAVMENFFGHLKSEMYYGASFTSVDELCQAIDEYILWYNTYRLQERFKGLAPMQYRNQTLAKTLTV” the “soluble on expression in E. coli” value was “not soluble”.
For “MGSDKIHHHHHHMSTSSGERVTVGTATASPGEAVRGAIPAGDLAGGVKVEIPVVVINGGGAGPTFWVNAAIHGDEPEGPLACALAVKQIDPAKLRGTVVMVPCVNPLAFSAAERGNPLDTFTYDMNRIYPGKPDGYFSDRVADAHWQAMKDVADLEISIHSGGAHSFLDKAIFVDERPESVELAKAMGEGWGCIMSNFTKAGSPMAAMNNAGKVDITVELGGRSYTSPDRFRYVGEELAKSILNICYHYDMLDGQATYPTDATIGQQEALLAPASGIFLPEPGVDFLTMMDNGTKIARIINIFGDEVGALHAPARGMFFGLRALPNVNQGDWCCFFNKVEGPRD”, the “soluble on expression in E. coli” value was “not soluble”.
With “GMASSGTEHDAMRARLVDVAQAIVEERGGAGLTLSELAARAGISQANLSRYFETREDLMEAIADYWFHPMVEIMEDVLASDLPPRRKMYEFFARRFVVMRRKWEADPVKLQTYIEVGNDYFEQVRSYIDLADHYLGEIIGEAMSDGAFSGLEVDETISLVNQMCAPYCALNTMTTFMERLSEDKLARIVDAVFDGLSAQDRGARSLTGLRAA” the “soluble on expression in E. coli” value was “soluble”.
